Key:
[1] = target: GAL4 DNA-binding domain fused N terminal 47 amino acids of HBSP (Hepatitis B virus); test: two-hybrid; CheckMate mammalian two-hybrid in Huh-7 cells; pACT-EPHX1(353-455) with pBIND constructs and pG5luc reporter; renilla-normalised firefly luciferase at 48 h, relative to pBIND + pACT set to 1
[2] = target: GAL4 DNA-binding domain fused full-length HBSP (Hepatitis B virus); test: as above

B1: VP16-tagged mEH 353-455 (domain or fragment)
chain: DLLTNVMLYWTTGTIISSQRFYKENLGQGWMTQKHERMKVYVPTGFSAFPFELLHTPEKWVRFKYPKLISYSYMVRGGHFAAFEEPELLAQDIRKFLSVLERQ
fold luciferase activity over the negative control [1]: 12 fold | fold luciferase activity over the negative control [2]: 9 fold
